The values below come from paper PMC6284149, “Biochemical, Metabolomic, and Genetic Analyses of Dephospho Coenzyme A Kinase Involved in Coenzyme A Biosynthesis in the Human Enteric Parasite Entamoeba histolytica” (Frontiers in Microbiology, 2018).

The target in one data set is T1, EhDPCK1 (Entamoeba histolytica, UniProt C4MB67).
T1 construct: gene EHI_040840; expressed in E. coli BL21(DE3), Ni-NTA purified
T1 sequence (C4MB67 1-206): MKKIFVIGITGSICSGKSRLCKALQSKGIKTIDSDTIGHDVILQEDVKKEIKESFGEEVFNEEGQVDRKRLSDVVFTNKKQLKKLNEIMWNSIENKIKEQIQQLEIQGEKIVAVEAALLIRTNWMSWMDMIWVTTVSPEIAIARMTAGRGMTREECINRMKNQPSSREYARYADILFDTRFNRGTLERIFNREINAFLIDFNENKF
Kind of data set: inhibition of DPCK activity. Type of data set: biochemical.

For the next data set, the target named is T2, EhDPCK2 (Entamoeba histolytica, UniProt C4LWC7).
T2 construct: gene EHI_155780; expressed in E. coli BL21(DE3), Ni-NTA purified
T2 sequence (C4LWC7 1-204): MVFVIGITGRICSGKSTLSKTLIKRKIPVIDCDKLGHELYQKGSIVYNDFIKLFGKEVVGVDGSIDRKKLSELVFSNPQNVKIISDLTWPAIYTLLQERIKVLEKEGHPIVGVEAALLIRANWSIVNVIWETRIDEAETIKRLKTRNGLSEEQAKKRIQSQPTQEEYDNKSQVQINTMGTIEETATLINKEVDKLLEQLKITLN
Kind of data set: inhibition of DPCK activity. It counts as biochemical.

Substrate in data set [1]: CC(C)(COP(=O)(O)OP(=O)(O)OC[C@H]1O[C@@H](n2cnc3c(N)ncnc32)[C@H](O)[C@@H]1O)[C@@H](O)C(=O)NCCC(=O)NCCS
Nature of the data set: ADP Hunter Plus coupled fluorescence assay, initial rates, non-linear regression. The following applies: 100 μM ATP; 4-128 μM dephospho-CoA; 15 mM Hepes, 20 mM NaCl, 1 mM EGTA, 10 mM MgCl2. It counts as biochemical, Entamoeba histolytica. The text has this:
(§1) ADP Hunter Plus coupled fluorescence assay, initial rates, non-linear regression on EhDPCK2

Substrate in data set [2]: Nc1ncnc2c1ncn2[C@@H]1O[C@H](COP(=O)(O)OP(=O)(O)OP(=O)(O)O)[C@@H](O)[C@H]1O
The data set is described as above. Type of data set: biochemical, Entamoeba histolytica. The following applies: 128 μM dephospho-CoA; 1-100 μM ATP; 15 mM Hepes, 20 mM NaCl, 1 mM EGTA, 10 mM MgCl2.
Description: as §1

Substrate in data set [3]: CC(C)(COP(=O)(O)OP(=O)(O)OC[C@H]1O[C@@H](n2cnc3c(N)ncnc32)[C@H](O)[C@@H]1O)[C@@H](O)C(=O)NCCC(=O)NCCS
Described as above. It counts as biochemical, Entamoeba histolytica. The following applies: 100 μM ATP; 4-128 μM dephospho-CoA; 15 mM Hepes, 20 mM NaCl, 1 mM EGTA, 10 mM MgCl2. The text has this: (§2) ADP Hunter Plus coupled fluorescence assay, initial rates, non-linear regression on EhDPCK1
This is another data set of the same source.

Substrate in data set [4]: Nc1ncnc2c1ncn2[C@@H]1O[C@H](COP(=O)(O)OP(=O)(O)OP(=O)(O)O)[C@@H](O)[C@H]1O
The description is as above. It counts as biochemical, Entamoeba histolytica. The following applies: 128 μM dephospho-CoA; 1-100 μM ATP; 15 mM Hepes, 20 mM NaCl, 1 mM EGTA, 10 mM MgCl2.
Description: as §2
This is another data set of the same source.

The mark [5] stands for this setting: product feedback inhibition at relatively high concentrations.
[6] abbreviates: feedback inhibition at relatively high concentrations.

As for `CC(C)(COP(=O)(O)OP(=O)(O)OC[C@H]1O[C@@H](n2cnc3c(N)ncnc32)[C@H](O)[C@@H]1OP(=O)(O)O)[C@@H](O)C(=O)NCCC(=O)NCCS` [CoA], the inhibition result against EhDPCK1 (setting [5]) was “Both EhDPCK1 and EhDPCK2 showed similar profiles of inhibition by CoA, acetyl-CoA, and malonyl-CoA”; at EhDPCK2 (setting [5]), “Both EhDPCK1 and EhDPCK2 showed similar profiles of inhibition by CoA, acetyl-CoA, and malonyl-CoA”.

Turning to `CC(C)(COP(=O)(O)OP(=O)(O)OC[C@H]1O[C@@H](n2cnc3c(N)ncnc32)[C@H](O)[C@@H]1OP(=O)(O)O)[C@@H](O)C(=O)NCCC(=O)NCCSC(=O)CC(=O)O` [malonyl-CoA], the inhibition entry at EhDPCK1 (setting [6]) is “Both EhDPCK1 and EhDPCK2 showed similar profiles of inhibition by CoA, acetyl-CoA, and malonyl-CoA”; on EhDPCK2 (setting [6]), “Both EhDPCK1 and EhDPCK2 showed similar profiles of inhibition by CoA, acetyl-CoA, and malonyl-CoA”.

For `CC(=O)SCCNC(=O)CCNC(=O)[C@H](O)C(C)(C)COP(=O)(O)OP(=O)(O)OC[C@H]1O[C@@H](n2cnc3c(N)ncnc32)[C@H](O)[C@@H]1OP(=O)(O)O` [acetyl-CoA], the inhibition entry against EhDPCK1 (setting [6]) was “Both EhDPCK1 and EhDPCK2 showed similar profiles of inhibition by CoA, acetyl-CoA, and malonyl-CoA”; against EhDPCK2 (setting [6]), “Both EhDPCK1 and EhDPCK2 showed similar profiles of inhibition by CoA, acetyl-CoA, and malonyl-CoA”.

B1: EhDPCK2 (Entamoeba histolytica HM-1:IMSS) (protein)
chain: MVFVIGITGRICSGKSTLSKTLIKRKIPVIDCDKLGHELYQKGSIVYNDFIKLFGKEVVGVDGSIDRKKLSELVFSNPQNVKIISDLTWPAIYTLLQERIKVLEKEGHPIVGVEAALLIRANWSIVNVIWETRIDEAETIKRLKTRNGLSEEQAKKRIQSQPTQEEYDNKSQVQINTMGTIEETATLINKEVDKLLEQLKITLN
notes: expressed in E. coli BL21(DE3), Ni-NTA purified
With B1, in data set [1], the Km is 57.9 ± 6.07 µM, the Vmax was 2.48 µmol/min/mg, the kcat came to 0.958 ± 0.0583 s⁻¹ and the kcat/Km was found to be 16500 ± 1170 M⁻¹ s⁻¹. Also, in data set [2], the Km stood at 15.0 ± 2.4 µM, the Vmax was determined as 2.71 µmol/min/mg, the kcat stood at 1.05 ± 0.0617 s⁻¹ and the kcat/Km was found to be 70800 ± 12300 M⁻¹ s⁻¹.

B2: EhDPCK1 (Entamoeba histolytica HM-1:IMSS) (protein)
chain: MKKIFVIGITGSICSGKSRLCKALQSKGIKTIDSDTIGHDVILQEDVKKEIKESFGEEVFNEEGQVDRKRLSDVVFTNKKQLKKLNEIMWNSIENKIKEQIQQLEIQGEKIVAVEAALLIRTNWMSWMDMIWVTTVSPEIAIARMTAGRGMTREECINRMKNQPSSREYARYADILFDTRFNRGTLERIFNREINAFLIDFNENKF
notes: as for B1
B2: in data set [3], the Km worked out at 114 ± 19 µM, the Vmax worked out at 3.71 µmol/min/mg, the kcat was found to be 1.48 ± 0.172 s⁻¹ and the kcat/Km came to 13000 ± 667 M⁻¹ s⁻¹. Further, in data set [4], the Km was determined as 19.6 ± 1.2 µM, the Vmax worked out at 3.54 µmol/min/mg, the kcat is 1.41 ± 0.04 s⁻¹ and the kcat/Km is 72000 ± 3830 M⁻¹ s⁻¹.
